This note sets out measurements from the supplement of paper PMC7877785.

± gives the uncertainty stated by the source.

The nature of this data set: self-splicing fitness, log relative to wild type (ln ratio); higher = more splicing; Tetrahymena group I intron in knt gene, E. coli kanamycin selection, DiMSum; sequences stand for … in CUCUCU…GGAGGGAAAAGUUAUCAGGCAUGCACCUGGUAGCUAGUCUUUAAACCAAUAGAUUGCAUCGGUUUAAAAGGCAAGACCGUCAAAUUGCGGGAAAGGGGUCAACAGCCGUUCAGUACCAAGUCUCAGGGGAAACUUUGAGAUGGCCUUGCAAAGGGUAUGGUAAUAAGCUGACGGACAUGGUCCUAACCACGCAGCCAAGUCCUAAGUCAACAGAUCUUCUGUUGAUAUGGAUGCAGUUCACAGACUAAAUGUCGGUCGGGGAAGAUGUAUUCUUCUCAUAAGAUAUAGUCGGACCUCUCCUUAAUGGGAGCUAGCGGAUGAAGUGAUGCAACACUGGAGCCGCUGGGAACUAAUUUGUAUGCGAAAGUAUAUUGAUUAGUUUUGGAGUACUCGUGGUCG
The essentials:
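Six replicate transformations of E. coli BL21(DE3) with a pET-22b(+) library were grown overnight at 37°C or 30°C. The library randomised all eight P1ex-region intron nucleotides, the intron lying in the knt kanamycin-resistance gene, and plates were LB agar with or without 25 μg/mL kanamycin plus 100 μg/mL carbenicillin, 50 μM IPTG and 0.2% rhamnose. Pooled colonies were amplicon-sequenced on an Illumina HiSeq 2500, and fitness is the DiMSum error-weighted combination of wild-type-normalised replicate fold changes, kanamycin versus none.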

CGGAAGCAAUAUUACGGGCA: the “self-splicing fitness (ln)” value runs as follows: (30 °C) -1.52 ± 0.16; (37 °C) -1.6 ± 0.19.
Taken in the same sequence, the figures for GAGCAGCAAUAUUACGCCUU were -3.8 ± 0.32 and -1.32 ± 0.19.
On the same counts, the results for ACAUAGCAAUAUUACGUAGC are -2.78 ± 0.13 and -2.04 ± 0.19.
Taken in the same sequence, the figures for AGAAAGCAAUAUUACGGUGC were -2.39 ± 0.15 and -2.6 ± 0.31.
As for AACUAGCAAUAUUACGAGUG, the “self-splicing fitness (ln)” value (30 °C) is -0.165 ± 0.059 and the “self-splicing fitness (ln)” value (37 °C) is -0.29 ± 0.074.
On to AAGAAGCAAUAUUACGUAGU, for which the “self-splicing fitness (ln)” value is -2.52 ± 0.16 (30 °C) and -1.14 ± 0.15 (37 °C).
Taken in the same sequence, the figures for AAGAAGCAAUAUUACGUGUC were -3.38 ± 0.15 and -2.09 ± 0.17.
Taken in the same sequence, the figures for CGUCAGCAAUAUUACGGUAU were -2.04 ± 0.11 and -2.59 ± 0.16.
As for AUCGAGCAAUAUUACGUCAC, the “self-splicing fitness (ln)” value (37 °C) is -1.29 ± 0.45.
With UAACAGCAAUAUUACGUGGG, the “self-splicing fitness (ln)” value by setting is: (30 °C) -4.35 ± 0.15; (37 °C) -2.75 ± 0.091.
In the case of UGUCAGCAAUAUUACGUCGC, under “30 °C”, the “self-splicing fitness (ln)” value is -1.14 ± 0.25.
As to UCACAGCAAUAUUACGUACU, the “self-splicing fitness (ln)” value is -2.82 ± 0.17 (30 °C) and -2.09 ± 0.22 (37 °C).
For the sequence UGGUAGCAAUAUUACGGGGC, the “self-splicing fitness (ln)” value (37 °C) was -2.37 ± 0.38.
In the case of CGAAAGCAAUAUUACGUUUG, the “self-splicing fitness (ln)” value by setting is: (30 °C) -2.33 ± 0.12; (37 °C) -1.74 ± 0.14.
Taken in the same sequence, the figures for CCACAGCAAUAUUACGCUAG were -3.27 ± 0.12 and -1.36 ± 0.1.
On the same counts, the results for ACAGAGCAAUAUUACGUUUU are -3.47 ± 0.24 and -3.26 ± 0.32.
As for CUUGAGCAAUAUUACGAGAA, the “self-splicing fitness (ln)” value (30 °C) is -2.73 ± 0.4.
As to CACGAGCAAUAUUACGCAGG, the “self-splicing fitness (ln)” value (30 °C) was -3.49 ± 0.21 and the “self-splicing fitness (ln)” value (37 °C) was -2.55 ± 0.2.
Taken in the same sequence, the figures for UUCAAGCAAUAUUACGACCA were -1.48 ± 0.31 and -0.352 ± 0.21.
On the same counts, the results for UCGCAGCAAUAUUACGUUAU are -3.3 ± 0.26 and -2.51 ± 0.24.
For GCAGAGCAAUAUUACGGACA, the “self-splicing fitness (ln)” value (37 °C) was -0.844 ± 0.3.
Consider GUGAAGCAAUAUUACGAUGA, for which the “self-splicing fitness (ln)” value runs as follows: (30 °C) -0.639 ± 0.075; (37 °C) 0.631 ± 0.093.
Taken in the same sequence, the figures for AGUUAGCAAUAUUACGCUCA were -1.23 ± 0.16 and -0.21 ± 0.15.
Taken in the same sequence, the figures for AUAGAGCAAUAUUACGGUUA were -1.49 ± 0.083 and -1.05 ± 0.11.
Turning to CGAAAGCAAUAUUACGGCCG, the “self-splicing fitness (ln)” value runs as follows: (30 °C) -1.64 ± 0.14; (37 °C) -0.462 ± 0.21.
In the case of UAGGAGCAAUAUUACGCGUU, the “self-splicing fitness (ln)” value runs as follows: (30 °C) -4.38 ± 0.24; (37 °C) -1.37 ± 0.14.
Taken in the same sequence, the figures for CCGGAGCAAUAUUACGCGGC were -3.5 ± 0.31 and -2.33 ± 0.26.
For CGACAGCAAUAUUACGCACU, the “self-splicing fitness (ln)” value reads like this: (30 °C) -1.22 ± 0.09; (37 °C) 0.0742 ± 0.12.
Take ACAGAGCAAUAUUACGUGGU: the “self-splicing fitness (ln)” value is -3.82 ± 0.2 (30 °C) and -2.37 ± 0.21 (37 °C).
Taken in the same sequence, the figures for UGUAAGCAAUAUUACGCGGU were -3.22 ± 0.21 and -2.15 ± 0.29.
Turning to GUGAAGCAAUAUUACGUGAG, the “self-splicing fitness (ln)” value reads like this: (30 °C) -1.26 ± 0.076; (37 °C) -0.555 ± 0.097.
On the same counts, the results for GUAAAGCAAUAUUACGAAGC are -1.89 ± 0.13 and -1.83 ± 0.22.
Taken in the same sequence, the figures for CGCAAGCAAUAUUACGUGUC were -2.39 ± 0.12 and -2.68 ± 0.16.
Taken in the same sequence, the figures for CGAGAGCAAUAUUACGUUAG were -4.23 ± 0.36 and -2.24 ± 0.29.
As to AUGCAGCAAUAUUACGGAUU, the “self-splicing fitness (ln)” value was -1.57 ± 0.071 (30 °C) and -1.14 ± 0.1 (37 °C).
On the same counts, the results for UGUCAGCAAUAUUACGUAGA are -0.492 ± 0.057 and -0.604 ± 0.081.
Taken in the same sequence, the figures for GGGAAGCAAUAUUACGGGCG were -1.14 ± 0.13 and -0.362 ± 0.15.
With ACGGAGCAAUAUUACGGGGG, under “37 °C”, the “self-splicing fitness (ln)” value was -1.58 ± 0.29.
For UACGAGCAAUAUUACGCAAA, the “self-splicing fitness (ln)” value (30 °C) is -2.36 ± 0.28 and the “self-splicing fitness (ln)” value (37 °C) is -1.67 ± 0.47.
Taken in the same sequence, the figures for GAGGAGCAAUAUUACGUGGA were -3.86 ± 0.32 and -2.98 ± 0.29.
On the same counts, the results for UUGAAGCAAUAUUACGGAGA are -0.684 ± 0.11 and -0.479 ± 0.15.
Turning to UCUAAGCAAUAUUACGGGGC, where the note is “37 °C”, the “self-splicing fitness (ln)” value is -2.21 ± 0.32.
As to GAGAAGCAAUAUUACGGGUC, the “self-splicing fitness (ln)” value by setting is: (30 °C) -3.08 ± 0.15; (37 °C) -2.24 ± 0.16.
Taken in the same sequence, the figures for GGCUAGCAAUAUUACGUGUC were -1.67 ± 0.18 and -1.26 ± 0.23.
Taken in the same sequence, the figures for UUGAAGCAAUAUUACGUAUA were -1.25 ± 0.11 and -0.207 ± 0.14.
Taken in the same sequence, the figures for UUAGAGCAAUAUUACGGGGG were -3.04 ± 0.31 and -1.79 ± 0.36.
With GGUAAGCAAUAUUACGUAGU, the “self-splicing fitness (ln)” value reads like this: (30 °C) -1.48 ± 0.11; (37 °C) -1.46 ± 0.17.
Taken in the same sequence, the figures for CAGUAGCAAUAUUACGUGUG were -1.64 ± 0.062 and -1.23 ± 0.085.
On the same counts, the results for GUGAAGCAAUAUUACGCGGG are -2.8 ± 0.19 and -1.55 ± 0.2.
Taken in the same sequence, the figures for UUAUAGCAAUAUUACGAUAA were -0.51 ± 0.11 and -0.0656 ± 0.12.
Take AAGAAGCAAUAUUACGUGAG: the “self-splicing fitness (ln)” value was -1.35 ± 0.046 (30 °C) and -0.828 ± 0.075 (37 °C).
Taken in the same sequence, the figures for CCGUAGCAAUAUUACGACGU were -0.571 ± 0.075 and -0.205 ± 0.088.
On the same counts, the results for CACCAGCAAUAUUACGGGGU are -4.29 ± 0.2 and -3.49 ± 0.29.
On the same counts, the results for CCUGAGCAAUAUUACGGAAA are -3.53 ± 0.35 and -1.92 ± 0.28.
As for AUUGAGCAAUAUUACGCUCC, the “self-splicing fitness (ln)” value (30 °C) is -1.83 ± 0.44.
Regarding GCACAGCAAUAUUACGGCUC, the “self-splicing fitness (ln)” value is -0.268 ± 0.071 (30 °C) and 0.523 ± 0.076 (37 °C).
Taken in the same sequence, the figures for GCGGAGCAAUAUUACGUUAA were -2.66 ± 0.25 and -2.32 ± 0.3.
Taken in the same sequence, the figures for GUACAGCAAUAUUACGACGG were -3.75 ± 0.22 and -2.89 ± 0.21.
On the same counts, the results for CAAGAGCAAUAUUACGCUGC are -3.4 ± 0.41 and -2.01 ± 0.24.
Take CUAAAGCAAUAUUACGCUCA: the “self-splicing fitness (ln)” value (30 °C) is -3.67 ± 0.25 and the “self-splicing fitness (ln)” value (37 °C) was -2.39 ± 0.19.
On the same counts, the results for UCGCAGCAAUAUUACGAUUA are -1.06 ± 0.11 and -0.805 ± 0.11.
For the sequence CUGCAGCAAUAUUACGUUGU, the “self-splicing fitness (ln)” value runs as follows: (30 °C) -4.62 ± 0.25; (37 °C) -2.54 ± 0.2.
Taken in the same sequence, the figures for CUGCAGCAAUAUUACGGCGG were -3.57 ± 0.25 and -2.23 ± 0.28.
Taken in the same sequence, the figures for GGUUAGCAAUAUUACGAACG were -0.128 ± 0.21 and -0.629 ± 0.44.
On the same counts, the results for CUGUAGCAAUAUUACGUAAG are -0.583 ± 0.081 and -0.353 ± 0.082.
For CUGAAGCAAUAUUACGGCCC, the “self-splicing fitness (ln)” value (30 °C) is -1.58 ± 0.48.
In the case of UUGAAGCAAUAUUACGGGGA, the “self-splicing fitness (ln)” value is -0.685 ± 0.08 (30 °C) and 0.372 ± 0.12 (37 °C).
For AAGGAGCAAUAUUACGAGUC, the “self-splicing fitness (ln)” value reads like this: (30 °C) -3.2 ± 0.47; (37 °C) -2.05 ± 0.23.
Take GUCCAGCAAUAUUACGCUCG: the “self-splicing fitness (ln)” value reads like this: (30 °C) -0.909 ± 0.15; (37 °C) -1.3 ± 0.22.
Taken in the same sequence, the figures for AUCCAGCAAUAUUACGCAGU were -2.72 ± 0.11 and -0.839 ± 0.09.
On to CGUUAGCAAUAUUACGCAUG, for which the “self-splicing fitness (ln)” value reads like this: (30 °C) -1.13 ± 0.12; (37 °C) -0.626 ± 0.17.
Taken in the same sequence, the figures for CUAAAGCAAUAUUACGUAGU were -4.53 ± 0.2 and -2.59 ± 0.17.
In the case of GGAAAGCAAUAUUACGGAAC, the “self-splicing fitness (ln)” value (30 °C) was -3.58 ± 0.43.
Turning to CGGUAGCAAUAUUACGUACG, the “self-splicing fitness (ln)” value by setting is: (30 °C) -1.3 ± 0.12; (37 °C) -0.879 ± 0.16.
For the sequence AGACAGCAAUAUUACGUAUC, the “self-splicing fitness (ln)” value reads like this: (30 °C) -3.63 ± 0.16; (37 °C) -1.52 ± 0.15.
Taken in the same sequence, the figures for ACACAGCAAUAUUACGCCGU were -2.08 ± 0.13 and -1.13 ± 0.18.
For the sequence GAUGAGCAAUAUUACGAGGG, the “self-splicing fitness (ln)” value (37 °C) was -2.15 ± 0.22.
For CAGAAGCAAUAUUACGGAGG, the “self-splicing fitness (ln)” value runs as follows: (30 °C) -1.91 ± 0.099; (37 °C) -1.2 ± 0.1.
